Assay [1] concerns the target Myc-PK-SV40NLS (not stated | SV40). Put plainly: SEC. A general note: Size exclusion chromatography separates by hydrodynamic size, large species first.
A further assay concerns the target Myc-PK-TprNLS. Kind of assay: SEC.
A further assay has as its target GST-SV40NLS (SV40). Put plainly: ELISA. Background: In an ELISA, binding on a coated surface is turned into a signal by an enzyme label.
Assay [2] has as its target Recombinant KPNA2/Importin-β (UniProt P52292;Q14974). Kind of assay: ELISA.

This is an account of results in article PMC3653351 (The Journal of Cell Biology, 2013).

Recombinant KPNA2/Importin-β (UniProt P52292;Q14974), sequence (Q14974 whole entry, one chain of several): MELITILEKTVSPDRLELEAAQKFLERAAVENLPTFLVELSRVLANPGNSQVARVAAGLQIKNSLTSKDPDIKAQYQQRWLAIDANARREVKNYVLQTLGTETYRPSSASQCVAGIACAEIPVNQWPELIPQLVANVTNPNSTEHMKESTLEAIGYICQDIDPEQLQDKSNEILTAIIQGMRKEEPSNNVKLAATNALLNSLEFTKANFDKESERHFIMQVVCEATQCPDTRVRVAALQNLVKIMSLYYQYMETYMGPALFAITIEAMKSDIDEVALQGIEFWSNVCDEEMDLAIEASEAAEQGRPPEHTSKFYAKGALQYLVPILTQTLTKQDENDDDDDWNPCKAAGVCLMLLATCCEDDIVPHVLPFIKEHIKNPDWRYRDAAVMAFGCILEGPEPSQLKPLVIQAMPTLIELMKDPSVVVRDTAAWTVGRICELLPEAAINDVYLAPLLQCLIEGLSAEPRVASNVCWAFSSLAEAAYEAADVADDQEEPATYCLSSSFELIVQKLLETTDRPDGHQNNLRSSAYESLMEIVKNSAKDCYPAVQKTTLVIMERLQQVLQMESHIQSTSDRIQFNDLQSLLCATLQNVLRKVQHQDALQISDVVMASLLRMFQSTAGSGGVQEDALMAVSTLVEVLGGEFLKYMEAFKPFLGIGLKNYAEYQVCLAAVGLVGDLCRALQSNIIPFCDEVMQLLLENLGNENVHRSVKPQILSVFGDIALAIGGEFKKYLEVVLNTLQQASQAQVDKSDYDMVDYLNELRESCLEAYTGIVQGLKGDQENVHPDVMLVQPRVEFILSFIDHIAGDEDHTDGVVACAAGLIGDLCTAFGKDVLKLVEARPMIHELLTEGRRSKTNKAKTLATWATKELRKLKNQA

By stoichiometry N is commonly meant the number of molecules, sites or subunits per partner or assembly. For the molecule Myc-PK-SV40NLS, in assay [1], the stoichiometry N came to 4. As to Myc-PK-TprNLS, in the assay with Myc-PK-TprNLS, the stoichiometry N came out at 4. The Kd is the equilibrium constant for the complex coming apart. “Recombinant KPNA2/Importin-β (from UniProt P52292;Q14974) (complex)” yielded a Kd with GST-SV40NLS (SV40) of 10.5 nM.

B1: GST-TprNLS (domain or fragment)
chain: STAVFGTVSATPSSSLPKRTREEEEDSTIEASDQVSDDTVEMPLPKKLKSVTPVGT
In the case of B1, the Kd in assay [2] is 3.2 nM.
